Data taken from paper PMC3405907.

Tests used:
[1] = molecular target: capsid shell protein (CSP) of cytoplasmic polyhedrosis virus (cytoplasmic polyhedrosis virus (CPV)); test: cryo-EM structure
[2] = molecular target: turret protein (TP) of cytoplasmic polyhedrosis virus (cytoplasmic polyhedrosis virus (CPV)); test: cryo-EM structure

Substance	stoichiometry N [1]	stoichiometry N [2]
capsid shell protein (CSP) of cytoplasmic polyhedrosis virus (natural protein)	120	
turret protein (TP) of cytoplasmic polyhedrosis virus (enzyme)		5
